The results in this text go back to US6716597 (MIT, dated 2004).

B1: FPPPP-cyto (EGFP fused to ActA amino acids 231-360, without the mitochondrial targeting sequence) (other)
chain: VNASDFPPPPTDEELRLALPETPMLLGFNAPATSEPSSFEFPPPPTDEELRLALPETPMLLGFNAPATSEPSSFEFPPPPTEDELEIIRETASSLDSSFTRGDLASLRNAINRHSQNFSDFPPIPTEEEL
notes: not shown: EGFP (enhanced green fluorescent protein, Clontech)
B2: FPPPP-mito (EGFP fused to ActA amino acids 231-610, four EVH1-binding FPPPP repeats and the mitochon (other)
chain: VNASDFPPPPTDEELRLALPETPMLLGFNAPATSEPSSFEFPPPPTDEELRLALPETPMLLGFNAPATSEPSSFEFPPPPTEDELEIIRETASSLDSSFTRGDLASLRNAINRHSQNFSDFPPIPTEEELNGRGGRPTSEEFSSLNSGDFTDDENSETTEEEIDRLADLRDRGTGKHSRNAGFLPLNPFASSPVPSLSPKVSKISAPALISDITKKTPFKNPSQPLNVFNKKTTTKTVTKKPTPVKTAPKLAELPATKPQETVLRENKTPFIEKQAETNKQSINMPSLPVIQKEATESDKEEMKPQTEEKMVEESESANNANGKNRSAGIEEGKLIAKSAEDEKAKEEPGNHTTLILAMLAIGVFSLGAFIKIIQLRKNN
notes: not shown: EGFP (enhanced green fluorescent protein, Clontech); the ActA portion is fused to its C-term
B3: VASP (endogenous, in Rat2 fibroblasts) (other)
chain: ETVICSSRATVMLYDDSNKRWLPAGTGPQAFSRVQIYHNPTANSFRVVGRKLQPDQQVVINCAIIRGVKYNQATPIFHQWRDARQVWGLNFGSKEDAAQFAIGMANALEALEGGGPPPAPAPPAWSTQNGPSPEELEQQKRQPEHLERRVSNAGGPPAPPAGGPPPPPGPPPPPGPPPPPGLPPSGVSGAGHGTGVAPPPAPPLPTAQGPSSGGSGAPGLAAAIAGAKLRKVSKEEASGGPLAPKAENSRGTGGGLMEEMNAMLARRRKATQVGEKPPKDESASQEESEARIPAQSEPVRRPWEKNSTTLPRMKSSSSVTTSEAHPSVPSSSDDSDLERVKQELVEEVRKELQKMKEEIIEVFVQELRKRGSP
notes: whole, on cells; also called vasodilator-stimulated phosphoprotein

Assay [1] has as its target B3. The assay is described as follows: immunofluorescence in Rat2 cells expressing the construct.
The target of assay [2] is T1, vinculin (endogenous, in Rat2 fibroblasts) (rat (Rat2 fibroblasts), UniProt P85972 1-1066).
T1 construct: whole, on cells
T1 sequence: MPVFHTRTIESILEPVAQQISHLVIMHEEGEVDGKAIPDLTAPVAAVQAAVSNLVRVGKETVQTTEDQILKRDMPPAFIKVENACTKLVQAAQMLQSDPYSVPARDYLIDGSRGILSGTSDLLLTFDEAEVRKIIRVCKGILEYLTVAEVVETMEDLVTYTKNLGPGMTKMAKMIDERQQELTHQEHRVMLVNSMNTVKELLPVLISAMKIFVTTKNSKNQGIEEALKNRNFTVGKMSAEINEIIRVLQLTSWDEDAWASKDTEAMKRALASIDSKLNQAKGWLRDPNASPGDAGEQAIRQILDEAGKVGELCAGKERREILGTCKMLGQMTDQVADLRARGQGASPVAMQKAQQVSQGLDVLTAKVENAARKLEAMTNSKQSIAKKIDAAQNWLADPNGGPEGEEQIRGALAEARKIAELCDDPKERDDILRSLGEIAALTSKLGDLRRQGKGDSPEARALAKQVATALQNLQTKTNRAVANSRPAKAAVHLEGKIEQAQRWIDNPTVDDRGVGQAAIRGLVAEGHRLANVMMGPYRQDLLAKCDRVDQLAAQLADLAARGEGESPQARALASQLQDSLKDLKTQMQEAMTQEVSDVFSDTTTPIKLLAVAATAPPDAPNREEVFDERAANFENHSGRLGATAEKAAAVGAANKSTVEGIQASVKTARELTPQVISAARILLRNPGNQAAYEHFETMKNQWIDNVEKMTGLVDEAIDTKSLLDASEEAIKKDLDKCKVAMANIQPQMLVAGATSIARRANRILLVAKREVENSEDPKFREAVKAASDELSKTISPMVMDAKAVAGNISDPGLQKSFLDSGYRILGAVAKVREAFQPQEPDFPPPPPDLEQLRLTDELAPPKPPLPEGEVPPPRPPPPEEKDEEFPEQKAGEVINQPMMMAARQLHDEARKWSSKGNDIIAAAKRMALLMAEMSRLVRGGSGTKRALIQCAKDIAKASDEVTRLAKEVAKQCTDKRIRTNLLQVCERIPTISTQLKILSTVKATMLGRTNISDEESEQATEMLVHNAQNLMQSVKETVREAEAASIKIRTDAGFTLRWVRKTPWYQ
The assay is described as follows: immunofluorescence in FPPPP-mito Rat2 cells.

In assay [3] the target is T2, p34 component of the Arp2/3 complex (endogenous, in Rat2 fibroblasts) (rat (Rat2 fibroblasts), UniProt P85970 1-300).
T2 construct: whole, on cells
The assay is described as follows: immunofluorescence in FPPPP-mito Rat2 cells.

The target of assay [4] is B2. Put plainly: immunofluorescence co-localisation in Rat2 cells expressing the construct.

Take B1: in assay [1], the binding result is reported as “binds”.
As for B2, the binding result in assay [2] and in assay [3] was “no binding” in each case.
Regarding B3, in assay [4], the binding result was “binds”.
